Reference: paper PMC7672437

Molecular target: Human recombinant full length DDX3X (human) (UniProt O00571)

Human recombinant full length DDX3X (from UniProt O00571 1-662) (enzyme)
helicase activity (unwinding of dsRNA Substrate *R18: R38) against DDX3X concentration, cooperativity index nH: 1.5
helicase activity (unwinding of dsRNA Substrate *R18: R38) against DDX3X concentration, half-maximal enzyme concentration K1/2: 0.26 µM
nuclease (RNaseH2-like) activity against DDX3X concentration, cooperativity index nH (no cooperativity observed): 0.7
